Blank lines part the entries; values can stand above or below the substance they belong to.
Experiments:
[1] = biological target: PLAP (human) (UniProt Q9Y263); assay: Flag co-IP, 293 cells, MudPIT MS
[2] = biological target: T1, VCIP135 (human) (UniProt Q96JH7); assay: Flag co-IP, 293 cells, MudPIT MS
T1 sequence (looked up): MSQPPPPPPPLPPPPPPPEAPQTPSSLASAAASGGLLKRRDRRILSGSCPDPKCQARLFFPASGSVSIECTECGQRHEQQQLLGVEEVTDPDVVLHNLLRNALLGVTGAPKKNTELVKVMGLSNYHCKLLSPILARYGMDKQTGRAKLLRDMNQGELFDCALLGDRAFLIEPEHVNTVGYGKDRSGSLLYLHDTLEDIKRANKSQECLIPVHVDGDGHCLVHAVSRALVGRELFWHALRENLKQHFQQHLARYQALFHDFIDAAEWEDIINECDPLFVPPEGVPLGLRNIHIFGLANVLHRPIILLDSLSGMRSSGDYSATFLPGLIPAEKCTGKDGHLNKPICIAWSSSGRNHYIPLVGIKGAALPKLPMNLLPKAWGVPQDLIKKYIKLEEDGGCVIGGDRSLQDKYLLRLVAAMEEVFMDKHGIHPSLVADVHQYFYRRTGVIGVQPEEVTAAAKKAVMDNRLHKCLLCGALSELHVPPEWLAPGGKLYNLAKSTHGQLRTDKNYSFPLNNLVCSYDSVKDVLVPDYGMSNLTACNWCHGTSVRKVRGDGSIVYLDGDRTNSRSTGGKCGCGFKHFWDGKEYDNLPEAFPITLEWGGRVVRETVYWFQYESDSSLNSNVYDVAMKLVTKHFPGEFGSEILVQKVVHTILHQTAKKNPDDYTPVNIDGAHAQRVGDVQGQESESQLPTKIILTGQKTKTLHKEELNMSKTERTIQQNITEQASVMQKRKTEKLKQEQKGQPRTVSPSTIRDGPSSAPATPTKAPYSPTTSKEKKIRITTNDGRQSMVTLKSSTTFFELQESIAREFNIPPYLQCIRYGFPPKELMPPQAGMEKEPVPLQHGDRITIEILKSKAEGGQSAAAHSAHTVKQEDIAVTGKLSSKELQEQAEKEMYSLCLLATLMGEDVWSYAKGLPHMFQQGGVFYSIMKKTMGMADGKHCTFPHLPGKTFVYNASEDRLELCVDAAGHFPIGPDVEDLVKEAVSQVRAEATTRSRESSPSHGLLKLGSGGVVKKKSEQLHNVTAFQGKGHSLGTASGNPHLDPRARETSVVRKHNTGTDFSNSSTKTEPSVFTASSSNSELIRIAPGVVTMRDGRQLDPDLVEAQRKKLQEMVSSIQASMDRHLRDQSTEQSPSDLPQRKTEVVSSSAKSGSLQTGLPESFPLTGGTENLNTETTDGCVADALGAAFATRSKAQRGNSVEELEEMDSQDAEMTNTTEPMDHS

[3] = biological target: endogenous NPL4 (human) (UniProt Q8TAT6); assay: Flag co-IP, 293 cells, MudPIT MS
[4] = biological target: endogenous p97 (human) (UniProt P55072); assay: Flag co-IP, 293 cells, MudPIT MS
[5] = biological target: T2, endogenous UFD1 (human) (UniProt Q92890); assay: Flag co-IP, 293 cells, MudPIT MS
T2 sequence (looked up): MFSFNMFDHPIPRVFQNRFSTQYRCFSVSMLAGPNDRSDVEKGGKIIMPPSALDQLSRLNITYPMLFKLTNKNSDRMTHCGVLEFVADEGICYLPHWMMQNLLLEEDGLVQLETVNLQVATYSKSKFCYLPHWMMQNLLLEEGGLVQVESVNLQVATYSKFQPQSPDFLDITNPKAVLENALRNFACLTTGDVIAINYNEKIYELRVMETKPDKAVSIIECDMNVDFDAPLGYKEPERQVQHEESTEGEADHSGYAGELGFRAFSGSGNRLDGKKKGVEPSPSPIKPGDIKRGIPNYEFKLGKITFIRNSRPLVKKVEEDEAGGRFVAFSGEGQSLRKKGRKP

[6] = biological target: p97-Myc; assay: p97-Myc co-IP, 293 cells, MudPIT MS
[7] = biological target: Cullin 1 (human) (UniProt Q13616); assay: Flag co-IP, MudPIT MS, DMSO
[8] = biological target: Cullin 3 (human) (UniProt Q13618); assay: Flag co-IP, MudPIT MS, DMSO
[9] = biological target: Kelch repeat and BTB domain-containing protein 7, KBTB7 (human) (UniProt Q8WVZ9); assay: Flag co-IP, MudPIT MS, DMSO
[10] = biological target: Kelch-like protein 22. KLEIL22 (human) (UniProt Q53GT1); assay: Flag co-IP, MudPIT MS, DMSO
[11] = biological target: Praja 2 (human) (UniProt O43164); assay: Flag co-IP, MudPIT MS, DMSO
Praja 2 (human), sequence (O43164 2-708 limits assumed): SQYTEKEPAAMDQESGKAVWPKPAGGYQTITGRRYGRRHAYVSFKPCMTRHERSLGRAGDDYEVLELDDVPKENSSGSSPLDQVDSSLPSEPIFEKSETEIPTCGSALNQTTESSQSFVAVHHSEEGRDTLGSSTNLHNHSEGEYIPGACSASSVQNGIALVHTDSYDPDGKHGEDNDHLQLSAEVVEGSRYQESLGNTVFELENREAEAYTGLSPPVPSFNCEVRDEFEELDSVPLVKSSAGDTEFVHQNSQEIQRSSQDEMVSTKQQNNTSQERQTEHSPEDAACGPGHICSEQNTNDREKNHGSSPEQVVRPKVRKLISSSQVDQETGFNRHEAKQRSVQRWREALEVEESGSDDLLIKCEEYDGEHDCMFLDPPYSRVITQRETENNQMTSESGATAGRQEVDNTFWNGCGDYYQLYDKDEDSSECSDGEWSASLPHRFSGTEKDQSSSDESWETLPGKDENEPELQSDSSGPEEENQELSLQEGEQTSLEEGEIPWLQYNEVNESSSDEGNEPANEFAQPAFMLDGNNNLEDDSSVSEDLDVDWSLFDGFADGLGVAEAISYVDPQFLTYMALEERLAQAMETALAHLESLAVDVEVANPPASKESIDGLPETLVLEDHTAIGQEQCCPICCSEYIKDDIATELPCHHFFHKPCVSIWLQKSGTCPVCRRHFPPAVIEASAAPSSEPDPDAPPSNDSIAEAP

[12] = biological target: Retinoblastoma-associated factor 600, UBR4 (human) (UniProt Q5T4S7); assay: Flag co-IP, MudPIT MS, DMSO
[13] = biological target: SKP1 (human) (UniProt P63208); assay: Flag co-IP, MudPIT MS, DMSO
SKP1 (human), sequence (P63208 2-163 limits assumed): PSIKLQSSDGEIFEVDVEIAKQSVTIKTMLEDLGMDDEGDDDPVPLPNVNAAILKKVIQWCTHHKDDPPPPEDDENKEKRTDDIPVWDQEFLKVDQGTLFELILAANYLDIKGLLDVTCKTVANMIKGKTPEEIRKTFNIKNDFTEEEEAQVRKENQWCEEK

[14] = biological target: UBR1 (human) (UniProt Q8IWV7); assay: Flag co-IP, MudPIT MS, DMSO
[15] = biological target: UBR2 (human) (UniProt Q8IWV8); assay: Flag co-IP, MudPIT MS, DMSO
UBR2 (human), sequence (Q8IWV8 2-1755 limits assumed): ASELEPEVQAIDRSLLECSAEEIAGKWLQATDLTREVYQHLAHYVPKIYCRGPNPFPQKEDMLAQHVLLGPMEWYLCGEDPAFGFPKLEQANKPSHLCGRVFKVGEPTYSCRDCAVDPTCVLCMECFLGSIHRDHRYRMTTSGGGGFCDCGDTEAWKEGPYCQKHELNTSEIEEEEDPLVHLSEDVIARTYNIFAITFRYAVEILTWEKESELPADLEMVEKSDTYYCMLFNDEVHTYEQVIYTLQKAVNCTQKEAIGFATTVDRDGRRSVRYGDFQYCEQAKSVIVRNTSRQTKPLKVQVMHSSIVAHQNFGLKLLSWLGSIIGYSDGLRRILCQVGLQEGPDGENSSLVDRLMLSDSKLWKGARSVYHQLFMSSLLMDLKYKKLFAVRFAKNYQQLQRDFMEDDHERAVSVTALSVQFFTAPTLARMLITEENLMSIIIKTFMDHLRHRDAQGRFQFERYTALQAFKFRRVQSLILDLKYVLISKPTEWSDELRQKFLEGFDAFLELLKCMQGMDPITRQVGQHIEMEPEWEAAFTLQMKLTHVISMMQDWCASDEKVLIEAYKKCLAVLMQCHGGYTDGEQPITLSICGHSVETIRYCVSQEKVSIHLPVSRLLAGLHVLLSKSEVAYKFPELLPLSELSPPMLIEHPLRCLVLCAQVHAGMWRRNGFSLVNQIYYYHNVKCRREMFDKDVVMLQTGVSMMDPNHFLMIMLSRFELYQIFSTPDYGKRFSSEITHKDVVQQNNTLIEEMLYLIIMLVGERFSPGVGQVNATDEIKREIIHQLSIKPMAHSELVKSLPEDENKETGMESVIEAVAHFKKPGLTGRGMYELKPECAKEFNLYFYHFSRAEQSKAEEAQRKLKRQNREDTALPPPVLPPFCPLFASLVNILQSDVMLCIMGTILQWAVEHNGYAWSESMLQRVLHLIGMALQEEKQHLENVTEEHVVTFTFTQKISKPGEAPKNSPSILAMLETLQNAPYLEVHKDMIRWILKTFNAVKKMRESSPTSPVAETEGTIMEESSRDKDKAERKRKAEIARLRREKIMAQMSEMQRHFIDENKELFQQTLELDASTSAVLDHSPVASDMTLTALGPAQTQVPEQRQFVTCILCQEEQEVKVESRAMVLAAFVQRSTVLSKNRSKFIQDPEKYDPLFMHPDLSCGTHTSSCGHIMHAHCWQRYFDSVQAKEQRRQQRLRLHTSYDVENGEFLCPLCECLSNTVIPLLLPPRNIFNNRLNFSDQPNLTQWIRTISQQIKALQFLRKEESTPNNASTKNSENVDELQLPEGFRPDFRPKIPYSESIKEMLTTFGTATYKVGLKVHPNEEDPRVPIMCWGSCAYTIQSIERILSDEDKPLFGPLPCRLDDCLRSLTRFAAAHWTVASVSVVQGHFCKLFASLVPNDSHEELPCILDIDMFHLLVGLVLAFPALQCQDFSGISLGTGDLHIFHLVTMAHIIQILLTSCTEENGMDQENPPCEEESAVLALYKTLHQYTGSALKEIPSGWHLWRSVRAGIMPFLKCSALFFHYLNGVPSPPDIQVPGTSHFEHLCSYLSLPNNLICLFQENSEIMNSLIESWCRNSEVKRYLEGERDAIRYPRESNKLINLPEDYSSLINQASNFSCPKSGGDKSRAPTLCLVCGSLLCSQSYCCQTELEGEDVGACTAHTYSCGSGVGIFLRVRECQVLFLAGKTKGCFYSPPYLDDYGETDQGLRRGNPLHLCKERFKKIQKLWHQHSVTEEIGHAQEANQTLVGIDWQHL

[16] = biological target: gp78 (human) (UniProt Q9UKV5); assay: Flag co-IP, MudPIT MS, DMSO
[17] = biological target: CUL4- and DDB I-associated WDR protein 2, WDR26 (human) (UniProt Q9H7D7); assay: Flag co-IP, MudPIT MS, MG132
[18] = biological target: Cullin 1 (human) (UniProt Q13616); assay: Flag co-IP, MudPIT MS, MG132
[19] = biological target: Cullin 2 (human) (UniProt Q13617); assay: Flag co-IP, MudPIT MS, MG132
[20] = biological target: Cullin 3 (human) (UniProt Q13618); assay: Flag co-IP, MudPIT MS, MG132
[21] = biological target: F-box//WD-repeat protein 1B, FBW1B (human) (UniProt Q9UKB1); assay: Flag co-IP, MudPIT MS, MG132
[22] = biological target: Kelch-like protein 22. KLEIL22 (human) (UniProt Q53GT1); assay: Flag co-IP, MudPIT MS, MG132
[23] = biological target: Retinoblastoma-associated factor 600, UBR4 (human) (UniProt Q5T4S7); assay: Flag co-IP, MudPIT MS, MG132
[24] = biological target: SKP1 (human) (UniProt P63208); assay: Flag co-IP, MudPIT MS, MG132
[25] = biological target: UBR2 (human) (UniProt Q8IWV8); assay: Flag co-IP, MudPIT MS, MG132
[26] = biological target: gp78 (human) (UniProt Q9UKV5); assay: Flag co-IP, MudPIT MS, MG132
[27] = biological target: DNA damage-binding protein I. DDB1 (human) (UniProt Q16531); assay: Flag co-IP, MudPIT MS, DMSO
DNA damage-binding protein I. DDB1 (human), sequence (Q16531 2-1140 limits assumed): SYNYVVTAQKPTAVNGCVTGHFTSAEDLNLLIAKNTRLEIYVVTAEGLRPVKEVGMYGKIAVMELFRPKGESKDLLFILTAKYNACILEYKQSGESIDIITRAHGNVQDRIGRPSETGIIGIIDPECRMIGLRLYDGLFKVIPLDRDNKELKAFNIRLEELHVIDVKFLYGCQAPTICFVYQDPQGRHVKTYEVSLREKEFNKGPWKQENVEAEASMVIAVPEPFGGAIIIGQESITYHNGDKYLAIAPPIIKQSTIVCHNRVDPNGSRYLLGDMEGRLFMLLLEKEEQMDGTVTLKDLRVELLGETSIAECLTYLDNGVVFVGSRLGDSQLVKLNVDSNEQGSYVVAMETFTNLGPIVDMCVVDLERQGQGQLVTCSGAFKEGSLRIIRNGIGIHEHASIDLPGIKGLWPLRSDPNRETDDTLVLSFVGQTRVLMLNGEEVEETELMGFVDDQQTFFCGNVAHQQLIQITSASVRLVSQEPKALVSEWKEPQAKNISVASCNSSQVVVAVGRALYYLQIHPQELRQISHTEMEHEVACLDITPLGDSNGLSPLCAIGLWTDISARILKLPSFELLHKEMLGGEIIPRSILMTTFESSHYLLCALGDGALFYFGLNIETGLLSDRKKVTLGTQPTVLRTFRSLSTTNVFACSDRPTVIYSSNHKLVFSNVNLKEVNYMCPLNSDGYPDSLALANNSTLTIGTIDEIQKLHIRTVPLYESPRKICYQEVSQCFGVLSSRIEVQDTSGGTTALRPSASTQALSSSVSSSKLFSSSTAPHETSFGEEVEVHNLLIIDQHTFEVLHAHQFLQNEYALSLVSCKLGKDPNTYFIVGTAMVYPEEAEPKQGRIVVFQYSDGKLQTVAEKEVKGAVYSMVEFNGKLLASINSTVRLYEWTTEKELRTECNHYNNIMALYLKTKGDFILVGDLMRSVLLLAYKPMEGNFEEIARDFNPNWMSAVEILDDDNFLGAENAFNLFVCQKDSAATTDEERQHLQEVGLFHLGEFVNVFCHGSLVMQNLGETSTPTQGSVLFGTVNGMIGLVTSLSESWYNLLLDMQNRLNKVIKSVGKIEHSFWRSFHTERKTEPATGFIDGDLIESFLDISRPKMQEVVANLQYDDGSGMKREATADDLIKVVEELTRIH

[28] = biological target: EDD1/UBR5 (human) (UniProt O95071); assay: Flag co-IP, MudPIT MS, DMSO
[29] = biological target: Galectin-3 binding protein. LG3BP (human) (UniProt Q08380); assay: Flag co-IP, MudPIT MS, DMSO
[30] = biological target: Ubiquitin conjugation factor E4 B, UBE4B (Ufd2ortholog) (human) (UniProt O95155); assay: Flag co-IP, MudPIT MS, DMSO
Ubiquitin conjugation factor E4 B, UBE4B (Ufd2ortholog) (human), sequence (O95155 whole entry): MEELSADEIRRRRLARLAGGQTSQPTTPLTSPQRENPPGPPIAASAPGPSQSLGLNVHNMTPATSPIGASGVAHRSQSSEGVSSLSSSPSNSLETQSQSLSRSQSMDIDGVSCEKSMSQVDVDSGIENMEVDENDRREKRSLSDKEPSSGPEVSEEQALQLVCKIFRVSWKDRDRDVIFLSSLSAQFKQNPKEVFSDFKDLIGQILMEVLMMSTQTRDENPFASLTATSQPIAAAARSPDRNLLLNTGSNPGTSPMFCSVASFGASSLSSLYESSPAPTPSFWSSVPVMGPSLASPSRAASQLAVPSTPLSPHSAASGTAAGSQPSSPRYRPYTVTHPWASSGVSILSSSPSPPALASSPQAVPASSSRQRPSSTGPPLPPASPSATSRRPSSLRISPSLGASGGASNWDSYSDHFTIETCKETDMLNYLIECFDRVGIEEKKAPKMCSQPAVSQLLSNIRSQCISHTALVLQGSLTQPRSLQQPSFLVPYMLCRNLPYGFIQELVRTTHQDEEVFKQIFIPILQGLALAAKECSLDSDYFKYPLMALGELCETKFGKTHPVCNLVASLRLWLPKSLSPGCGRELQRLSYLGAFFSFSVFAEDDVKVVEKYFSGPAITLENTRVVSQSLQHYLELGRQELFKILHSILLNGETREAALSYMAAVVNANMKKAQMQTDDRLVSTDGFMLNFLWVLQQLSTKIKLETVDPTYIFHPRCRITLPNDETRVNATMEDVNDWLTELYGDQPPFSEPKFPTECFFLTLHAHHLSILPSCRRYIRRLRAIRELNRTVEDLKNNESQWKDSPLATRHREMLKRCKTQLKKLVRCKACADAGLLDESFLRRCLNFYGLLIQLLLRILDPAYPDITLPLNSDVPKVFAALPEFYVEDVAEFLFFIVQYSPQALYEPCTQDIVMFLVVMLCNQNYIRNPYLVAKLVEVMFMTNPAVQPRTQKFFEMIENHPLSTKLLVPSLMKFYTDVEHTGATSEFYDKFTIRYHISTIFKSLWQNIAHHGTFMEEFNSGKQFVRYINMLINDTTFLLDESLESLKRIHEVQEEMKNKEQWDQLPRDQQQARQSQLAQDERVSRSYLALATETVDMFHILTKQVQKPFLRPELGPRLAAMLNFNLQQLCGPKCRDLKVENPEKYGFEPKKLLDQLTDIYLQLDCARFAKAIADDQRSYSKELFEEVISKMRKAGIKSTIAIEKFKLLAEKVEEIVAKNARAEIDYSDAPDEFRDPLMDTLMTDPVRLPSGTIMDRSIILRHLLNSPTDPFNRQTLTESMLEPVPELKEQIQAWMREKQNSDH

[31] = biological target: DNA damage-binding protein I. DDB1 (human) (UniProt Q16531); assay: Flag co-IP, MudPIT MS, MG132
[32] = biological target: Ubiquitin conjugation factor E4 B, UBE4B (Ufd2ortholog) (human) (UniProt O95155); assay: Flag co-IP, MudPIT MS, MG132

Substance: Flag-UBXD1 (from UniProt Q9BZV1 1-441)
sequence count [1]: 3
sequence coverage [1]: 7.5%
spectrum count [1]: 3
sequence count [2]: 2
sequence coverage [2]: 2.5%
spectrum count [2]: 2

Substance: Flag-UBXD6 (from UniProt O00124 1-270)
sequence count [2]: 2
sequence coverage [2]: 2.7%
spectrum count [2]: 2
sequence count [3]: 9
sequence coverage [3]: 16.5%
spectrum count [3]: 16
sequence count [5]: 4
sequence coverage [5]: 19.2%
spectrum count [5]: 5

Substance: endogenous FAF1 (from UniProt Q9UNN5 1-650)
sequence count [6]: 7
sequence coverage [6]: 8.2%
spectrum count [6]: 11

Substance: Flag-ASPL (from UniProt Q9BZE9 1-553)
sequence count [1]: 10
sequence coverage [1]: 22.8%
spectrum count [1]: 10

Substance: Flag-p47 (from UniProt O35987 1-370)
abundance factor (AF) [27]: 0.5
sequence count [27]: 2
spectrum count [27]: 2
abundance factor (AF) [28]: 0.2
sequence count [28]: 2
spectrum count [28]: 2
abundance factor (AF) [29]: 1.5
sequence count [29]: 3
spectrum count [29]: 3
abundance factor (AF) [30]: 1.1
sequence count [30]: 5
spectrum count [30]: 5
abundance factor (AF) [19]: 1
sequence count [19]: 2
spectrum count [19]: 2
abundance factor (AF) [31]: 1
sequence count [31]: 3
spectrum count [31]: 3
abundance factor (AF) [23]: 0.2
sequence count [23]: 2
spectrum count [23]: 3
abundance factor (AF) [32]: 1.4
sequence count [32]: 5
spectrum count [32]: 5
abundance factor (AF) [26]: 1.7
sequence count [26]: 3
spectrum count [26]: 3
sequence count [1]: 27
sequence coverage [1]: 42.9%
spectrum count [1]: 38

Now from value to substance:

sequence count [1]: 6
sequence coverage [1]: 11.6%
spectrum count [1]: 6
sequence count [2]: 20
sequence coverage [2]: 27.5%
spectrum count [2]: 25
sequence count [3]: 2
sequence coverage [3]: 5.2%
spectrum count [3]: 3
sequence count [4]: 124
sequence coverage [4]: 75.5%
spectrum count [4]: 783
Substance: Flag-UBXD5

sequence count [3]: 7
sequence coverage [3]: 14.1%
spectrum count [3]: 9
sequence count [5]: 3
sequence coverage [5]: 12.2%
spectrum count [5]: 3
Substance: Flag-UBXD3 (from UniProt Q96LJ8 1-280)

abundance factor (AF) [7]: 9.1
sequence count [7]: 6
spectrum count [7]: 8
abundance factor (AF) [8]: 24.6
abundance factor (AF) [9]: 2.6
sequence count [9]: 2
spectrum count [9]: 2
abundance factor (AF) [10]: 8.3
sequence count [10]: 6
spectrum count [10]: 6
abundance factor (AF) [11]: 3.8
sequence count [11]: 3
spectrum count [11]: 3
abundance factor (AF) [12]: 1.6
sequence count [12]: 9
spectrum count [12]: 9
abundance factor (AF) [13]: 10.7
sequence count [13]: 2
spectrum count [13]: 2
abundance factor (AF) [14]: 1
sequence count [14]: 2
spectrum count [14]: 2
abundance factor (AF) [15]: 2
sequence count [15]: 4
spectrum count [15]: 4
abundance factor (AF) [16]: 2.7
sequence count [16]: 2
spectrum count [16]: 2
abundance factor (AF) [17]: 8.9
sequence count [17]: 5
spectrum count [17]: 5
abundance factor (AF) [18]: 8.4
sequence count [18]: 5
spectrum count [18]: 7
abundance factor (AF) [19]: 7.2
sequence count [19]: 6
spectrum count [19]: 6
abundance factor (AF) [20]: 14.1
sequence count [20]: 12
spectrum count [20]: 12
abundance factor (AF) [21]: 3.4
sequence count [21]: 2
spectrum count [21]: 2
abundance factor (AF) [22]: 11.7
sequence count [22]: 8
spectrum count [22]: 8
abundance factor (AF) [23]: 10.2
sequence count [23]: 47
spectrum count [23]: 56
abundance factor (AF) [24]: 33.6
sequence count [24]: 4
spectrum count [24]: 6
abundance factor (AF) [25]: 1
sequence count [25]: 2
spectrum count [25]: 2
abundance factor (AF) [26]: 8.6
sequence count [26]: 4
spectrum count [26]: 6
sequence count [1]: 2
sequence coverage [1]: 4.8%
spectrum count [1]: 2
sequence count [2]: 5
sequence coverage [2]: 5.9%
spectrum count [2]: 5
Substance: Flag-FAF1 (from UniProt Q9UNN5 1-650)
